The record followed here is article PMC5560099.

The data set deals with O=C(Cc1cccs1)N[C@@H]1C(=O)N2C(C(=O)O)=C(/C=C/c3ccc([N+](=O)[O-])cc3[N+](=O)[O-])CS[C@H]12. Put plainly: steady-state hydrolysis kinetics with purified PenA. Format: biochemical, Burkholderia multivorans.

Turning to “PenA β-lactamase (Burkholderia multivorans ATCC 17616)”, the Km stood at 147 ± 15 µM and the kcat/Km came to 3.2e+06 ± 300000 M⁻¹ s⁻¹.
